Earlier results in PMC7174325.
Read-outs that look alike come from different tables or passages of the source. Each block holds one substance with its values, some of them ahead of it.

What was measured:
[1] = biological target: BAK (Homo sapiens) (UniProt Q16611); experiment: ITC
[2] = biological target: BAX (Homo sapiens) (UniProt Q07812); experiment: ITC
[3] = biological target: BAD (Homo sapiens) (UniProt Q92934)
[4] = biological target: BAD (Homo sapiens) (UniProt Q92934); remark: listed apart in the source

BAD (Homo sapiens), sequence (Q92934 whole entry): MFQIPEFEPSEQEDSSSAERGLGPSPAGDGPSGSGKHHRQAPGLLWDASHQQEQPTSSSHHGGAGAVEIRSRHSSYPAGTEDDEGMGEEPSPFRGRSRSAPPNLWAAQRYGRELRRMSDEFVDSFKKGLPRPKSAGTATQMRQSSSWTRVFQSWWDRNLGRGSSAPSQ
BCL-w, sequence (Q92843 2-193): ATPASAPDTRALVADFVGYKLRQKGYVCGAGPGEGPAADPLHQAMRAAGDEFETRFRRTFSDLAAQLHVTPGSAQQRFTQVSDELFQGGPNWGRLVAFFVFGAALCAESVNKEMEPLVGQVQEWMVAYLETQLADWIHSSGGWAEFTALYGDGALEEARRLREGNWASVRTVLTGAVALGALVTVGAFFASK
BCL-w homodimer, sequence (Q92843 2-193): as above
BCL-w monomer, sequence (Q92843 2-193): as above
BAX (Homo sapiens), sequence (Q07812 whole entry): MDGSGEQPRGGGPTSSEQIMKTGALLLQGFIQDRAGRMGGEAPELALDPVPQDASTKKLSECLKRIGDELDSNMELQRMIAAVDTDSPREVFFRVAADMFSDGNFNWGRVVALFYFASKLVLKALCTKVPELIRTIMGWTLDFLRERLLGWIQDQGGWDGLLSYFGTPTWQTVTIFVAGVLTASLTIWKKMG
BAK (Homo sapiens), sequence (Q16611 2-211): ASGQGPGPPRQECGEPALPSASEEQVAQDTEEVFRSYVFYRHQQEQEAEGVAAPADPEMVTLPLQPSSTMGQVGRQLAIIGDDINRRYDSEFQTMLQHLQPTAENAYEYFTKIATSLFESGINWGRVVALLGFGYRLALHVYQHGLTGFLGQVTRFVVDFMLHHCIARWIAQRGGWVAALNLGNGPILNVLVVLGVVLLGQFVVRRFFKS

Kd [1]: 114 nM
Kd [2]: 22.9 nM
Substance: BCL-w (from UniProt Q92843)

Kd [3]: 150 nM
Substance: BCL-w homodimer (from UniProt Q92843)

Kd [4]: 14 nM
Substance: BCL-w monomer (from UniProt Q92843)
